Target: the molecule itself
Assay: cross-linking

B1: Alg44-6His (natural protein, Pseudomonas aeruginosa, UniProt Q9HY69 1-389, looked up)
chain: MNTAVNVNVVHESEAQRQFARVKLPARIRYIGANREGVDARLLDLSAGGFAFTASGAPIQPGDLYKGKLLFQVDSISFSLEVEFQVRSVDPASRRVGCEFQNLKPREVAALRYLITSYLAGEVIGVGDMLNTLQRENFTKARKQGGGNGGMGFFGRVRAVTLSTAIFVVGVGAFAFILNQMYNLYFVTHADSGVVSVPNQQITMPREGTVQSLLGPNAEVAKGAPIATFSANLLDMLKGNLTEEQLNPGNIEKLFGHQMKGTLTSPCDCRVVQQLVADGQYANKGQVIFTLAPRDSVASIEARFPYRNAAELAPGTRVNFQVAGDGVNRSGRIVNTAPVDGDLSSEIRVQIQPDQPLDAQYAGRPAEVSIGGLPGRTLLNKAVTLATAR
  stoichiometry N: 2

Reference: article PMC4436075 (mBio, 2015)
